The target in assay [1] is HEV ORF3 and GFP1 fusion protein (genotype 1) (hepatitis E virus genotype 1 (W2-1 strain)). The assay is described as follows: co-IP; Matchmaker Chemiluminescent Co-IP System; 293FT cells co-transfected with pAcGFP1-ORF3 and pProLabel-prey, lysed at 48 h; precipitated with anti-AcGFP (GFP1) polyclonal antibody; ProLabel chemiluminescence (RLU) read on the beads.
Assay [2] shares this target. The experiment in a line: co-IP; Matchmaker Chemiluminescent Co-IP System; 293FT cells co-transfected with pAcGFP1-ORF3 and pProLabel-prey, lysed at 48 h; precipitated with anti-HEV ORF3 polyclonal antibody; ProLabel chemiluminescence (RLU) read on the beads; three independent tests.

B1: Hemopexin, ProLabel fusion (natural protein)
chain: TPLPPTSAHGNVAEGETKPDPDVTERCSDGWSFDATTLDDNGTMLFFKGEFVWKSHKWDRELISERWKNFPSPVDAAFRQGHNSVFLIKGDKVWVYPPEKKEKGYPKLLQDEFPGIPSPLDAAVECHRGECQAEGVLFFQGDREWFWDLATGTMKERSWPAVGNCSSALRWLGRYYCFQGNQFLRFDPVRGEVPPRYPRDVRDYFMPCPGRGHGHRNGTGHGNSTHHGPEYMRCSPHLVLSALTSDNHGATYAFSGTHYWRLDTSRDGWHSWPIAHQWPQGPSAVDAAFSWEEKLYLVQGTQVYVFLTKGGYTLVSGYPKRLEKEVGTPHGIILDSVDAAFICPGSSRLHIMAGRRLWWLDLKSGAQATWTELPWPHEKVDGALCMEKSLGPNSCSANGPGLYLIHGPNLYCYSDVEKLNAAKALPQPQNVTSLLGCTH
As to B1, the chemiluminescent intensity was 614 RLU in assay [1] and 1140 RLU in assay [2].

Source of the values: PMC3571956.
